Data published in patent US20100075385A1 (DONALD DANFORTH PLANT SCIENCE CENTER, published 2010).

Molecular target: the molecule itself
Experiment: gel filtration on a calibrated Sephacryl 200 column; self-association of the subunit (43 kDa by SDS-PAGE) into a homodimer
Text: Purification and Functional Characterization of Recombinant Enzymes—The PSOMT1 and PSOMT2 cDNAs were each constructed to express the recombinant proteins with six histidine residues elongating the amino terminus. The proteins were then purified from S. frugiperda Sf9 cell culture medium in one step by cobalt affinity chromatography to yield electrophoretically homogeneous proteins. PSOMT1 and PSOMT2 each have relative molecular masses of 43 kDa as determined by SDS-PAGE. This compares with the calculated molecular masses of 39,841 and 38,510 based on the translation of the nucleotide sequences. The native relative molecular masses were determined by gel filtration on a calibrated Sephacryl 200 column (Pharmacia). PSOMT1 and PSOMT2 are each homodimers with an Mr of 85 and 80 kDa, respectively. This is consistent with that observed for norcoclaurine 6-O-methyltransferases of (S)-reticuline biosynthesis in T. tuberosum (4).

Protein	binding result
Papaver somniferum (R,S)-reticuline 7-O-methyltransferase (PSOMT1), recombinant, His-tagged subunit (enzyme, Full-length open reading frame expressed in Sf9 cells with an N-terminal His tag and purified on cobalt resin; GenBank AY268893 is printed for it; also called Pso7OMT; Ps7OMT; not shown: six histidine residues elongating the amino terminus (pFastBac HTa vector)) MDTAEERLKGQAEIWEHMFAFVDSMALKCAVELGIPDIINSHGRPVTISEIVDSLKTNTPSSSPNIDYLTRIMRLLVHKRLFTSELHQESNQLLYNLTRSSKWLLKDSKFNLSPLVLWETNPILLKPWQYLGKCAQEKSSPFERAHGCEIWDLALADPKFNNFLNGAMQCSTTTIINEMLLEYKDGFSGIAGSLVDVGGGTGSIIAEIVKAHPHIQGINFDLPHVVATAAEFPGVKHVGGDMFVDIPEADAVIMKWILHDWSDEDCTIILKNCYRAIRKKKNGKVIIVDCVLRPDGNDLFDKMGLIFDVLMMAHTTAGKERTEAEWKILLNNAGFPRYNVIRTPAFPCIIEAFPE	binds
Papaver somniferum (R,S)-norcoclaurine 6-O-methyltransferase (PSOMT2), recombinant, His-tagged subunit (enzyme, Full-length open reading frame expressed in Sf9 cells with an N-terminal His tag and purified on cobalt resin; GenBank AY268894 is printed for it; also called Pso6OMT; Ps6OMT; not shown: six histidine residues elongating the amino terminus (pFastBac HTa vector)) METVSKIDQQNQAKIWKQIYGFAESLVLKCAVQLEIAETLHNNVKPMSLSELASKLPVAQPVNEDRLFRIMRYLVHMELFKIDATTQKYSLAPPAKYLLRGWEKSMVDSILCINDKDFLAPWHHLGDGLTGNCDAFEKALGKSIWVYMSVNPEKNQLFNAAMACDTRLVTSALANECKSIFSDGISTLVDVGGGTGTAVKAISKAFPDIKCTIYDLPHVIADSPEIPNITKISGDMFKSIPSADAIFMKCILHDWNDDECIQILKRCKEALPKGGKVIIVDVVIDMDSTHPYAKIRLTLDLDMMLNTGGKERTKEEWKTLFDAAGFASHKVTQISAVQSVIEAYPY	binds
